Data: patent publication US20260049138A1 (Chugai, published 2026)

Biological target: T1, CD3ε homodimer protein (human, UniProt P07766 23-126, limits assumed)
T1 construct: also called CD3 (CD3ε)
Experiment: SPR Biacore T200, CD3ε homodimer on chip;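 further: Light-chain single-residue variant antibodies injected over amine-coupled CD3ε homodimer on a CM4 chip at 25 °C, bound amount divided by that of the GLS3000-containing antibody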

T1 sequence (P07766 23-126 limits assumed): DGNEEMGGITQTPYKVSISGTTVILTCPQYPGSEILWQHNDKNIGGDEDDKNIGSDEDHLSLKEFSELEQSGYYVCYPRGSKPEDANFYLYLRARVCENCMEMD

Binder | ratio of amount bound vs unaltered GLS3000
GLS3000 H27dI one-arm antibody (antibody, human IgG1, kappa, L234A L235A, N297A, name in Kabat numbering) heavy: QVQLVESGGGVVQPGRSLRLSCAASGFTFSNAWMHWVRQAPGKGLEWVAQIKAKSNNYATYYAESVKGRFTISRDDSKNSLYLQMNSLKTEDTAVYYCRYVHYGAYYGVDAWGQGTTVTVSSASTKGPSVFPLAPSSKSTSGGTAALGCLVKDYFPEPVTVSWNSGALTSGVHTFPAVLQSSGLYSLSSVVTVPSSSLGTQTYICNVNHKPSNTKVDKKVEPKSCDKTHTCPPCPAPEAAGGPSVFLFPPKPKDTLMISRTPEVTCVVVDVSHEDPEVKFNWYVDGVEVHNAKTKPREEQYASTYRVVSVLTVLHQDWLNGKEYKCKVSNKALPAPIEKTISKAKGQPREPQVYTLPPSRCELTKNQVSLSCAVKGFYPSDIAVEWESNGQPENNYKTTPPVLDSDGSFFLVSKLTVDKSRWQQGNVFSCSVMHEALHNHYTQKSLSLSPDYKDDDDK EPKSSDKTHTCPPCPAPELLGGPSVFLFPPKPKDTLMISRTPEVTCVVVDVSHEDPEVKFNWYVDGVEVHNAKTKPREEQYNSTYRVVSVLTVLHQDWLNGKEYKCKVSNKALPAPIEKTISKAKGQPREPQVCTLPPSRDELTKNQVSLWCLVKGFYPSDIAVEWESNGQPENNYKTTPPVLDSDGSFFLYSKLTVDKSRWQQGNVFSCSVMHEALHNRYTQKSLSLSP light: DIVMTQSPLSLPVTPGEPASISCRSSQSLVISNRNTYLHWYQQKPGQAPRLLIYKVSNRFSGVPDRFSGSGSGTDFTLKISRVEAEDVGVYYCGQGTQVPYTFGQGTKLEIKRTVAAPSVFIFPPSDEQLKSGTASVVCLLNNFYPREAKVQWKVDNALQSGNSQESVTEQDSKDSTYSLSSTLTLSKADYEKHKVYACEVTHQGLSSPVTKSFNRGEC | 0.26
GLS3000 H27dL one-arm antibody (antibody, human IgG1, kappa, L234A L235A, N297A, name in Kabat numbering) heavy: QVQLVESGGGVVQPGRSLRLSCAASGFTFSNAWMHWVRQAPGKGLEWVAQIKAKSNNYATYYAESVKGRFTISRDDSKNSLYLQMNSLKTEDTAVYYCRYVHYGAYYGVDAWGQGTTVTVSSASTKGPSVFPLAPSSKSTSGGTAALGCLVKDYFPEPVTVSWNSGALTSGVHTFPAVLQSSGLYSLSSVVTVPSSSLGTQTYICNVNHKPSNTKVDKKVEPKSCDKTHTCPPCPAPEAAGGPSVFLFPPKPKDTLMISRTPEVTCVVVDVSHEDPEVKFNWYVDGVEVHNAKTKPREEQYASTYRVVSVLTVLHQDWLNGKEYKCKVSNKALPAPIEKTISKAKGQPREPQVYTLPPSRCELTKNQVSLSCAVKGFYPSDIAVEWESNGQPENNYKTTPPVLDSDGSFFLVSKLTVDKSRWQQGNVFSCSVMHEALHNHYTQKSLSLSPDYKDDDDK EPKSSDKTHTCPPCPAPELLGGPSVFLFPPKPKDTLMISRTPEVTCVVVDVSHEDPEVKFNWYVDGVEVHNAKTKPREEQYNSTYRVVSVLTVLHQDWLNGKEYKCKVSNKALPAPIEKTISKAKGQPREPQVCTLPPSRDELTKNQVSLWCLVKGFYPSDIAVEWESNGQPENNYKTTPPVLDSDGSFFLYSKLTVDKSRWQQGNVFSCSVMHEALHNRYTQKSLSLSP light: DIVMTQSPLSLPVTPGEPASISCRSSQSLVLSNRNTYLHWYQQKPGQAPRLLIYKVSNRFSGVPDRFSGSGSGTDFTLKISRVEAEDVGVYYCGQGTQVPYTFGQGTKLEIKRTVAAPSVFIFPPSDEQLKSGTASVVCLLNNFYPREAKVQWKVDNALQSGNSQESVTEQDSKDSTYSLSSTLTLSKADYEKHKVYACEVTHQGLSSPVTKSFNRGEC | 0.3
GLS3000 H27dK one-arm antibody (antibody, human IgG1, kappa, L234A L235A, N297A, name in Kabat numbering) heavy: QVQLVESGGGVVQPGRSLRLSCAASGFTFSNAWMHWVRQAPGKGLEWVAQIKAKSNNYATYYAESVKGRFTISRDDSKNSLYLQMNSLKTEDTAVYYCRYVHYGAYYGVDAWGQGTTVTVSSASTKGPSVFPLAPSSKSTSGGTAALGCLVKDYFPEPVTVSWNSGALTSGVHTFPAVLQSSGLYSLSSVVTVPSSSLGTQTYICNVNHKPSNTKVDKKVEPKSCDKTHTCPPCPAPEAAGGPSVFLFPPKPKDTLMISRTPEVTCVVVDVSHEDPEVKFNWYVDGVEVHNAKTKPREEQYASTYRVVSVLTVLHQDWLNGKEYKCKVSNKALPAPIEKTISKAKGQPREPQVYTLPPSRCELTKNQVSLSCAVKGFYPSDIAVEWESNGQPENNYKTTPPVLDSDGSFFLVSKLTVDKSRWQQGNVFSCSVMHEALHNHYTQKSLSLSPDYKDDDDK EPKSSDKTHTCPPCPAPELLGGPSVFLFPPKPKDTLMISRTPEVTCVVVDVSHEDPEVKFNWYVDGVEVHNAKTKPREEQYNSTYRVVSVLTVLHQDWLNGKEYKCKVSNKALPAPIEKTISKAKGQPREPQVCTLPPSRDELTKNQVSLWCLVKGFYPSDIAVEWESNGQPENNYKTTPPVLDSDGSFFLYSKLTVDKSRWQQGNVFSCSVMHEALHNRYTQKSLSLSP light: DIVMTQSPLSLPVTPGEPASISCRSSQSLVKSNRNTYLHWYQQKPGQAPRLLIYKVSNRFSGVPDRFSGSGSGTDFTLKISRVEAEDVGVYYCGQGTQVPYTFGQGTKLEIKRTVAAPSVFIFPPSDEQLKSGTASVVCLLNNFYPREAKVQWKVDNALQSGNSQESVTEQDSKDSTYSLSSTLTLSKADYEKHKVYACEVTHQGLSSPVTKSFNRGEC | 0.29
GLS3000 H27dM one-arm antibody (antibody, human IgG1, kappa, L234A L235A, N297A, name in Kabat numbering) heavy: QVQLVESGGGVVQPGRSLRLSCAASGFTFSNAWMHWVRQAPGKGLEWVAQIKAKSNNYATYYAESVKGRFTISRDDSKNSLYLQMNSLKTEDTAVYYCRYVHYGAYYGVDAWGQGTTVTVSSASTKGPSVFPLAPSSKSTSGGTAALGCLVKDYFPEPVTVSWNSGALTSGVHTFPAVLQSSGLYSLSSVVTVPSSSLGTQTYICNVNHKPSNTKVDKKVEPKSCDKTHTCPPCPAPEAAGGPSVFLFPPKPKDTLMISRTPEVTCVVVDVSHEDPEVKFNWYVDGVEVHNAKTKPREEQYASTYRVVSVLTVLHQDWLNGKEYKCKVSNKALPAPIEKTISKAKGQPREPQVYTLPPSRCELTKNQVSLSCAVKGFYPSDIAVEWESNGQPENNYKTTPPVLDSDGSFFLVSKLTVDKSRWQQGNVFSCSVMHEALHNHYTQKSLSLSPDYKDDDDK EPKSSDKTHTCPPCPAPELLGGPSVFLFPPKPKDTLMISRTPEVTCVVVDVSHEDPEVKFNWYVDGVEVHNAKTKPREEQYNSTYRVVSVLTVLHQDWLNGKEYKCKVSNKALPAPIEKTISKAKGQPREPQVCTLPPSRDELTKNQVSLWCLVKGFYPSDIAVEWESNGQPENNYKTTPPVLDSDGSFFLYSKLTVDKSRWQQGNVFSCSVMHEALHNRYTQKSLSLSP light: DIVMTQSPLSLPVTPGEPASISCRSSQSLVMSNRNTYLHWYQQKPGQAPRLLIYKVSNRFSGVPDRFSGSGSGTDFTLKISRVEAEDVGVYYCGQGTQVPYTFGQGTKLEIKRTVAAPSVFIFPPSDEQLKSGTASVVCLLNNFYPREAKVQWKVDNALQSGNSQESVTEQDSKDSTYSLSSTLTLSKADYEKHKVYACEVTHQGLSSPVTKSFNRGEC | 0.3
GLS3000 H27dP one-arm antibody (antibody, human IgG1, kappa, L234A L235A, N297A, name in Kabat numbering) heavy: QVQLVESGGGVVQPGRSLRLSCAASGFTFSNAWMHWVRQAPGKGLEWVAQIKAKSNNYATYYAESVKGRFTISRDDSKNSLYLQMNSLKTEDTAVYYCRYVHYGAYYGVDAWGQGTTVTVSSASTKGPSVFPLAPSSKSTSGGTAALGCLVKDYFPEPVTVSWNSGALTSGVHTFPAVLQSSGLYSLSSVVTVPSSSLGTQTYICNVNHKPSNTKVDKKVEPKSCDKTHTCPPCPAPEAAGGPSVFLFPPKPKDTLMISRTPEVTCVVVDVSHEDPEVKFNWYVDGVEVHNAKTKPREEQYASTYRVVSVLTVLHQDWLNGKEYKCKVSNKALPAPIEKTISKAKGQPREPQVYTLPPSRCELTKNQVSLSCAVKGFYPSDIAVEWESNGQPENNYKTTPPVLDSDGSFFLVSKLTVDKSRWQQGNVFSCSVMHEALHNHYTQKSLSLSPDYKDDDDK EPKSSDKTHTCPPCPAPELLGGPSVFLFPPKPKDTLMISRTPEVTCVVVDVSHEDPEVKFNWYVDGVEVHNAKTKPREEQYNSTYRVVSVLTVLHQDWLNGKEYKCKVSNKALPAPIEKTISKAKGQPREPQVCTLPPSRDELTKNQVSLWCLVKGFYPSDIAVEWESNGQPENNYKTTPPVLDSDGSFFLYSKLTVDKSRWQQGNVFSCSVMHEALHNRYTQKSLSLSP light: DIVMTQSPLSLPVTPGEPASISCRSSQSLVPSNRNTYLHWYQQKPGQAPRLLIYKVSNRFSGVPDRFSGSGSGTDFTLKISRVEAEDVGVYYCGQGTQVPYTFGQGTKLEIKRTVAAPSVFIFPPSDEQLKSGTASVVCLLNNFYPREAKVQWKVDNALQSGNSQESVTEQDSKDSTYSLSSTLTLSKADYEKHKVYACEVTHQGLSSPVTKSFNRGEC | 0.24
GLS3000 H27dN one-arm antibody (antibody, human IgG1, kappa, L234A L235A, N297A, name in Kabat numbering) heavy: QVQLVESGGGVVQPGRSLRLSCAASGFTFSNAWMHWVRQAPGKGLEWVAQIKAKSNNYATYYAESVKGRFTISRDDSKNSLYLQMNSLKTEDTAVYYCRYVHYGAYYGVDAWGQGTTVTVSSASTKGPSVFPLAPSSKSTSGGTAALGCLVKDYFPEPVTVSWNSGALTSGVHTFPAVLQSSGLYSLSSVVTVPSSSLGTQTYICNVNHKPSNTKVDKKVEPKSCDKTHTCPPCPAPEAAGGPSVFLFPPKPKDTLMISRTPEVTCVVVDVSHEDPEVKFNWYVDGVEVHNAKTKPREEQYASTYRVVSVLTVLHQDWLNGKEYKCKVSNKALPAPIEKTISKAKGQPREPQVYTLPPSRCELTKNQVSLSCAVKGFYPSDIAVEWESNGQPENNYKTTPPVLDSDGSFFLVSKLTVDKSRWQQGNVFSCSVMHEALHNHYTQKSLSLSPDYKDDDDK EPKSSDKTHTCPPCPAPELLGGPSVFLFPPKPKDTLMISRTPEVTCVVVDVSHEDPEVKFNWYVDGVEVHNAKTKPREEQYNSTYRVVSVLTVLHQDWLNGKEYKCKVSNKALPAPIEKTISKAKGQPREPQVCTLPPSRDELTKNQVSLWCLVKGFYPSDIAVEWESNGQPENNYKTTPPVLDSDGSFFLYSKLTVDKSRWQQGNVFSCSVMHEALHNRYTQKSLSLSP light: DIVMTQSPLSLPVTPGEPASISCRSSQSLVNSNRNTYLHWYQQKPGQAPRLLIYKVSNRFSGVPDRFSGSGSGTDFTLKISRVEAEDVGVYYCGQGTQVPYTFGQGTKLEIKRTVAAPSVFIFPPSDEQLKSGTASVVCLLNNFYPREAKVQWKVDNALQSGNSQESVTEQDSKDSTYSLSSTLTLSKADYEKHKVYACEVTHQGLSSPVTKSFNRGEC | 0.3
